Legend:
[1] = target: T1, THB + APS truncation mutant of PorXFJ (Flavobacterium johnsoniae, UniProt A5FFU4); assay: phosphodiesterase assay; type: biochemical; conditions: zinc-dependent
T1 construct: gene Fjoh_2906; REC domain truncated, residues 126–end; ~46 kDa; E. coli BL21
T1 sequence (A5FFU4 126-517): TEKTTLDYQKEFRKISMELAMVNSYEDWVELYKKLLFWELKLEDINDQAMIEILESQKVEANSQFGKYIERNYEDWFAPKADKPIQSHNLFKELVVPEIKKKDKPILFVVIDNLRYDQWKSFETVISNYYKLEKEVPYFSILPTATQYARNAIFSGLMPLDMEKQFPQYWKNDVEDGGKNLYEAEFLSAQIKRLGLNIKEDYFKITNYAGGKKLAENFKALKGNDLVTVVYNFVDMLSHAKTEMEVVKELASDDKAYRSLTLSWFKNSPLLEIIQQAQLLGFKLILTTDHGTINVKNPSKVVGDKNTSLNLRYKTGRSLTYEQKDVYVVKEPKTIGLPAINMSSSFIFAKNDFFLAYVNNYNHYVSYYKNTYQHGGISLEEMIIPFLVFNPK

PorXFJ = target: T2, PorXFJ (Flavobacterium johnsoniae, UniProt A5FFU4); conditions: phosphate analogue; bound at REC phosphorylation site (Asp54) and at APS catalytic site near Thr271; primitive orthorhombic crystal form
T2 construct: gene Fjoh_2906
T2 sequence (A5FFU4 1-517): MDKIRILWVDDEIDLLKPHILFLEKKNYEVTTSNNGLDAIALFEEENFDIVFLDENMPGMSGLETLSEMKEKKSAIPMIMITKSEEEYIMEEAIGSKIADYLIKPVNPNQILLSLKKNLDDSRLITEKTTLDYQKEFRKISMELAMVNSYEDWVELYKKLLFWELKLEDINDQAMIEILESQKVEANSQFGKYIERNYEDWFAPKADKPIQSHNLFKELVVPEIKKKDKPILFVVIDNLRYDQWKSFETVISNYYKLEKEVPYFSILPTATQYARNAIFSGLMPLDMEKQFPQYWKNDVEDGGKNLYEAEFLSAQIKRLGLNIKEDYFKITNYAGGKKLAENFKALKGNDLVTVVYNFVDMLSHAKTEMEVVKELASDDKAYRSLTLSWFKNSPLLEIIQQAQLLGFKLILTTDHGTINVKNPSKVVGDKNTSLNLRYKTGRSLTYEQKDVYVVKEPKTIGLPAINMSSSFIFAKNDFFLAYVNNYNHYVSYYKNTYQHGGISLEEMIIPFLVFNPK

[2] = target: the molecule itself; assay: SEC; protein incubated with acetyl phosphate (AcP) in the presence of magnesium; Superdex200inc 10/300 GL for wild type and point mutants, Superdex75inc 10/300 GL for truncations; monomer to dimer
[3] = target: the molecule itself; assay: as above; remark: listed apart in the source
[4] = target: the molecule itself; assay: SEC; protein incubated with zinc only (no AcP); Superdex200inc 10/300 GL for wild type and point mutants, Superdex75inc 10/300 GL for truncations; monomer to dimer
[5] = target: the molecule itself; assay: as above; remark: listed apart in the source

O=[N+]([O-])c1ccc(OP(=O)(O)Oc2ccc([N+](=O)[O-])cc2)cc1 [bis(p-nitrophenyl) phosphate]
phosphodiesterase assay [1]: full-length PorXFJ and the THB + APS truncation mutant

[F][Be-]([F])[F] [BeF3]
X-ray co-crystal structure (PorXFJ): we have co-crystallized PorXFJ with the phosphate analog, BeF3

B1: PorX from Flavobacterium johnsoniae (PorXFJ), wild type, full length (natural protein, UniProt A5FFU4 1-517, looked up)
chain: MDKIRILWVDDEIDLLKPHILFLEKKNYEVTTSNNGLDAIALFEEENFDIVFLDENMPGMSGLETLSEMKEKKSAIPMIMITKSEEEYIMEEAIGSKIADYLIKPVNPNQILLSLKKNLDDSRLITEKTTLDYQKEFRKISMELAMVNSYEDWVELYKKLLFWELKLEDINDQAMIEILESQKVEANSQFGKYIERNYEDWFAPKADKPIQSHNLFKELVVPEIKKKDKPILFVVIDNLRYDQWKSFETVISNYYKLEKEVPYFSILPTATQYARNAIFSGLMPLDMEKQFPQYWKNDVEDGGKNLYEAEFLSAQIKRLGLNIKEDYFKITNYAGGKKLAENFKALKGNDLVTVVYNFVDMLSHAKTEMEVVKELASDDKAYRSLTLSWFKNSPLLEIIQQAQLLGFKLILTTDHGTINVKNPSKVVGDKNTSLNLRYKTGRSLTYEQKDVYVVKEPKTIGLPAINMSSSFIFAKNDFFLAYVNNYNHYVSYYKNTYQHGGISLEEMIIPFLVFNPK
notes: also called WT; Fjoh_2906; source: E. coli BL21, purified (Ni-NTA, thrombin cleavage, SEC); not shown: 10x-His, N-terminal, cleaved
binding result [2]: binds

B2: PorXFJ T271V (APS domain catalytically inactive mutant) (natural protein, UniProt A5FFU4 1-517, looked up)
chain: MDKIRILWVDDEIDLLKPHILFLEKKNYEVTTSNNGLDAIALFEEENFDIVFLDENMPGMSGLETLSEMKEKKSAIPMIMITKSEEEYIMEEAIGSKIADYLIKPVNPNQILLSLKKNLDDSRLITEKTTLDYQKEFRKISMELAMVNSYEDWVELYKKLLFWELKLEDINDQAMIEILESQKVEANSQFGKYIERNYEDWFAPKADKPIQSHNLFKELVVPEIKKKDKPILFVVIDNLRYDQWKSFETVISNYYKLEKEVPYFSILPTAVQYARNAIFSGLMPLDMEKQFPQYWKNDVEDGGKNLYEAEFLSAQIKRLGLNIKEDYFKITNYAGGKKLAENFKALKGNDLVTVVYNFVDMLSHAKTEMEVVKELASDDKAYRSLTLSWFKNSPLLEIIQQAQLLGFKLILTTDHGTINVKNPSKVVGDKNTSLNLRYKTGRSLTYEQKDVYVVKEPKTIGLPAINMSSSFIFAKNDFFLAYVNNYNHYVSYYKNTYQHGGISLEEMIIPFLVFNPK
notes: source: E. coli BL21, purified (Ni-NTA, thrombin cleavage, SEC); not shown: 10x-His, N-terminal, cleaved
binding result [3]: binds

B3: PorXFJ D54A (REC domain phosphorylation-null mutant) (natural protein, UniProt A5FFU4 1-517, looked up)
chain: MDKIRILWVDDEIDLLKPHILFLEKKNYEVTTSNNGLDAIALFEEENFDIVFLAENMPGMSGLETLSEMKEKKSAIPMIMITKSEEEYIMEEAIGSKIADYLIKPVNPNQILLSLKKNLDDSRLITEKTTLDYQKEFRKISMELAMVNSYEDWVELYKKLLFWELKLEDINDQAMIEILESQKVEANSQFGKYIERNYEDWFAPKADKPIQSHNLFKELVVPEIKKKDKPILFVVIDNLRYDQWKSFETVISNYYKLEKEVPYFSILPTATQYARNAIFSGLMPLDMEKQFPQYWKNDVEDGGKNLYEAEFLSAQIKRLGLNIKEDYFKITNYAGGKKLAENFKALKGNDLVTVVYNFVDMLSHAKTEMEVVKELASDDKAYRSLTLSWFKNSPLLEIIQQAQLLGFKLILTTDHGTINVKNPSKVVGDKNTSLNLRYKTGRSLTYEQKDVYVVKEPKTIGLPAINMSSSFIFAKNDFFLAYVNNYNHYVSYYKNTYQHGGISLEEMIIPFLVFNPK
notes: as for B2
binding result [4]: binds

B4: PorXFJ L113E (REC domain dimerization interface mutant) (natural protein, UniProt A5FFU4 1-517, looked up)
chain: MDKIRILWVDDEIDLLKPHILFLEKKNYEVTTSNNGLDAIALFEEENFDIVFLDENMPGMSGLETLSEMKEKKSAIPMIMITKSEEEYIMEEAIGSKIADYLIKPVNPNQILESLKKNLDDSRLITEKTTLDYQKEFRKISMELAMVNSYEDWVELYKKLLFWELKLEDINDQAMIEILESQKVEANSQFGKYIERNYEDWFAPKADKPIQSHNLFKELVVPEIKKKDKPILFVVIDNLRYDQWKSFETVISNYYKLEKEVPYFSILPTATQYARNAIFSGLMPLDMEKQFPQYWKNDVEDGGKNLYEAEFLSAQIKRLGLNIKEDYFKITNYAGGKKLAENFKALKGNDLVTVVYNFVDMLSHAKTEMEVVKELASDDKAYRSLTLSWFKNSPLLEIIQQAQLLGFKLILTTDHGTINVKNPSKVVGDKNTSLNLRYKTGRSLTYEQKDVYVVKEPKTIGLPAINMSSSFIFAKNDFFLAYVNNYNHYVSYYKNTYQHGGISLEEMIIPFLVFNPK
notes: as for B2
binding result [4]: binds

B5: PorXFJ S384A/S388E double mutant (APS domain dimerization interface) (natural protein, UniProt A5FFU4 1-517, looked up)
chain: MDKIRILWVDDEIDLLKPHILFLEKKNYEVTTSNNGLDAIALFEEENFDIVFLDENMPGMSGLETLSEMKEKKSAIPMIMITKSEEEYIMEEAIGSKIADYLIKPVNPNQILLSLKKNLDDSRLITEKTTLDYQKEFRKISMELAMVNSYEDWVELYKKLLFWELKLEDINDQAMIEILESQKVEANSQFGKYIERNYEDWFAPKADKPIQSHNLFKELVVPEIKKKDKPILFVVIDNLRYDQWKSFETVISNYYKLEKEVPYFSILPTATQYARNAIFSGLMPLDMEKQFPQYWKNDVEDGGKNLYEAEFLSAQIKRLGLNIKEDYFKITNYAGGKKLAENFKALKGNDLVTVVYNFVDMLSHAKTEMEVVKELASDDKAYRALTLEWFKNSPLLEIIQQAQLLGFKLILTTDHGTINVKNPSKVVGDKNTSLNLRYKTGRSLTYEQKDVYVVKEPKTIGLPAINMSSSFIFAKNDFFLAYVNNYNHYVSYYKNTYQHGGISLEEMIIPFLVFNPK
notes: also called S348A/S388E (as printed once); source: E. coli BL21, purified (Ni-NTA, thrombin cleavage, SEC); not shown: 10x-His, N-terminal, cleaved
binding result [3]: binds

B6: PorXFJ D360A/H364A double mutant (zinc coordination, Zn1 site) (natural protein, UniProt A5FFU4 1-517, looked up)
chain: MDKIRILWVDDEIDLLKPHILFLEKKNYEVTTSNNGLDAIALFEEENFDIVFLDENMPGMSGLETLSEMKEKKSAIPMIMITKSEEEYIMEEAIGSKIADYLIKPVNPNQILLSLKKNLDDSRLITEKTTLDYQKEFRKISMELAMVNSYEDWVELYKKLLFWELKLEDINDQAMIEILESQKVEANSQFGKYIERNYEDWFAPKADKPIQSHNLFKELVVPEIKKKDKPILFVVIDNLRYDQWKSFETVISNYYKLEKEVPYFSILPTATQYARNAIFSGLMPLDMEKQFPQYWKNDVEDGGKNLYEAEFLSAQIKRLGLNIKEDYFKITNYAGGKKLAENFKALKGNDLVTVVYNFVAMLSAAKTEMEVVKELASDDKAYRSLTLSWFKNSPLLEIIQQAQLLGFKLILTTDHGTINVKNPSKVVGDKNTSLNLRYKTGRSLTYEQKDVYVVKEPKTIGLPAINMSSSFIFAKNDFFLAYVNNYNHYVSYYKNTYQHGGISLEEMIIPFLVFNPK
notes: as for B2
binding result [3]: binds

B7: PorXFJ REC + THB domains (1–208) (domain or fragment, UniProt A5FFU4 1-208, looked up)
chain: MDKIRILWVDDEIDLLKPHILFLEKKNYEVTTSNNGLDAIALFEEENFDIVFLDENMPGMSGLETLSEMKEKKSAIPMIMITKSEEEYIMEEAIGSKIADYLIKPVNPNQILLSLKKNLDDSRLITEKTTLDYQKEFRKISMELAMVNSYEDWVELYKKLLFWELKLEDINDQAMIEILESQKVEANSQFGKYIERNYEDWFAPKADK
notes: also called REC + THB domains truncated variant; source: E. coli BL21, purified (Ni-NTA, thrombin cleavage, SEC); not shown: 10x-His, N-terminal, cleaved
binding result [5]: binds

B8: PorXFJ REC domain (1–121) (domain or fragment, UniProt A5FFU4 1-121, looked up)
chain: MDKIRILWVDDEIDLLKPHILFLEKKNYEVTTSNNGLDAIALFEEENFDIVFLDENMPGMSGLETLSEMKEKKSAIPMIMITKSEEEYIMEEAIGSKIADYLIKPVNPNQILLSLKKNLDD
notes: also called REC domain only truncation variant; source: E. coli BL21, purified (Ni-NTA, thrombin cleavage, SEC); not shown: 10x-His, N-terminal, cleaved
binding result [3]: binds

B9: PorXFJ APS + THB domains (126–end) (domain or fragment, UniProt A5FFU4 126-517, looked up)
chain: TEKTTLDYQKEFRKISMELAMVNSYEDWVELYKKLLFWELKLEDINDQAMIEILESQKVEANSQFGKYIERNYEDWFAPKADKPIQSHNLFKELVVPEIKKKDKPILFVVIDNLRYDQWKSFETVISNYYKLEKEVPYFSILPTATQYARNAIFSGLMPLDMEKQFPQYWKNDVEDGGKNLYEAEFLSAQIKRLGLNIKEDYFKITNYAGGKKLAENFKALKGNDLVTVVYNFVDMLSHAKTEMEVVKELASDDKAYRSLTLSWFKNSPLLEIIQQAQLLGFKLILTTDHGTINVKNPSKVVGDKNTSLNLRYKTGRSLTYEQKDVYVVKEPKTIGLPAINMSSSFIFAKNDFFLAYVNNYNHYVSYYKNTYQHGGISLEEMIIPFLVFNPK
notes: also called THB + APS truncation mutant; THB + APS domains; source: E. coli BL21, purified (Ni-NTA, thrombin cleavage, SEC); not shown: 10x-His, N-terminal, cleaved
binding result [5]: binds

From PMC11320123, “Unveiling the molecular mechanisms of the type IX secretion system's response regulator: Structural and functional insights” (PNAS Nexus, 2024)
